Test [1] deals with T1, human DLL4 overexpressed on cells (human, UniProt Q9NR61 27-685).
T1 construct: full length human DLL4 on CHO or HEK293 cells; also called CHO-hDLL4; CHO-hDII4
Put plainly: FACS titration on HEK293-hDLL4 cells, MCF. Here is the method:
(§1) In order to determine the cynomologus cross-reactivity of the VHHs, a FACS binding experiment is performed. Cynomolgus DII4 expressing HEK293 cells (transient or stable transfection) are used for a titration binding experiment of the VHHs. After a 30 minutes incubation on ice, all samples are washed and detection is performed by applying anti-c-myc˜Alexa647 (Santa Cruz Biotechnology, Santa Cruz, Calif., USA). Human and mouse DII4 overexpressing HEK293 cells are taken as reference. The mean MCF value is determined on the FACS Array and used for calculation of the EC₅₀ value (see FIG. 9 A-E).

Test [2] addresses T2, mouse DLL4 overexpressed on cells (mouse, UniProt Q9JI71 27-686).
T2 construct: whole, on cells; also called CHO-mDLL4; CHO-mDII4
As to the kind of experiment: competitive FMAT, hNotch1-Fc on CHO-mDLL4.

Test [3] addresses T3, human DLL1 (human, UniProt O00548 18-545, limits assumed).
T3 construct: also called hDLL1
T3 sequence (looked up): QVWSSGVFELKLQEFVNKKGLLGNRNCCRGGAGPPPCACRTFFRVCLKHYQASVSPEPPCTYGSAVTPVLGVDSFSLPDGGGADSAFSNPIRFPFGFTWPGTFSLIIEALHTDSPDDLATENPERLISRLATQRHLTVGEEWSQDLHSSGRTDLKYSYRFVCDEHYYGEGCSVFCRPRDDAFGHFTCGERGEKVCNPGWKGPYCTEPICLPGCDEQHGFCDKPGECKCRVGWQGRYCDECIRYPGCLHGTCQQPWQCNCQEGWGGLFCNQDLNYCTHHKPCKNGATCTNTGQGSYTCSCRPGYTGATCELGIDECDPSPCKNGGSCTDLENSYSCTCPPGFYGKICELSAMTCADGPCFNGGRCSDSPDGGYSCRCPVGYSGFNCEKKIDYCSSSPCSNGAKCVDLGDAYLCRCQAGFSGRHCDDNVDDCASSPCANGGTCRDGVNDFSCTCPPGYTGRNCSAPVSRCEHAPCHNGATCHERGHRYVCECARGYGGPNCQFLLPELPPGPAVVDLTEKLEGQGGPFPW
As to the kind of experiment: binding ELISA on coated recombinant human DLL1, OD 405 nm. The procedure:
(§2) Absence of binding to homologous ligands human DLL1 and human Jagged-1 is assessed via solid phase binding assay (ELISA). In brief, human DLL1 (Alexis, San Diego, Calif., USA) and human Jagged-1 (Alexis, San Diego, Calif., USA) are coated overnight at 4° C. at 1 μg/mL in a 96-well MaxiSorp plate (Nunc, Wiesbaden, Germany). Wells are blocked with a casein solution (1% in PBS). VHHs are applied as dilution series and binding is detected using a mouse anti-myc (Roche) and an anti-mouse-AP conjugate (Sigma, St. Louis, Mo., USA).

The target in test [4] is T4, recombinant human DLL4 (human, UniProt Q9NR61 25-522).
T4 construct: also called rhDLL4; hDLL4
As to the kind of experiment: competition ELISA, biot-hDLL4 to coated hNotch1-Fc. The source says:
Residual binding of biotinylated human DII4 is detected using horseradish peroxidase (HRP) conjugated extravidin (Sigma, St. Louis, Mo., USA) (FIG. 3 A-C). Human DII4 is biotinylated as described above.
A general note: ELISA stands for enzyme-linked immunosorbent assay.

Test [5] deals with T5, recombinant mouse DLL4 (mouse, UniProt Q9JI71 27-532).
T5 construct: extracellular domain; also called rmDLL4; mDLL4
T5 sequence (Q9JI71 27-532): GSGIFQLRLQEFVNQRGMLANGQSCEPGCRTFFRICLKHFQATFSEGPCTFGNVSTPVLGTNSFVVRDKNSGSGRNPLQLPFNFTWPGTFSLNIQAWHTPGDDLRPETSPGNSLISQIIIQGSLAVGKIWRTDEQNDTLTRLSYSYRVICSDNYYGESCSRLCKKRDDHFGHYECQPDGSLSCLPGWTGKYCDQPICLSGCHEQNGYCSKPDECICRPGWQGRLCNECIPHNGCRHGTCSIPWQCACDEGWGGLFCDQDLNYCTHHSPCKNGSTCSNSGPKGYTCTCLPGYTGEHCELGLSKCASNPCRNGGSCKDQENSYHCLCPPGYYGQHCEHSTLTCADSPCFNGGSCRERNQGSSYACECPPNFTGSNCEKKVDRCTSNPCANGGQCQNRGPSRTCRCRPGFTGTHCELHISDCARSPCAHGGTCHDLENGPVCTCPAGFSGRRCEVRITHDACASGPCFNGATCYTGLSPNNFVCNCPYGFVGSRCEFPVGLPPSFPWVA
As to the kind of experiment: binding ELISA, coated rmDLL4. Here is the method: (§3) In order to determine cross-reactivity to mouse DII4 a binding ELISA is performed. […] Wells are blocked with a casein solution (1% in PBS). VHHs are applied as dilution series and binding is detected using a mouse anti-myc (Roche) and an anti-mouse-AP conjugate (Sigma, St Louis, Mo., USA) (FIG. 7 A-H). As reference, binding to human DII4 is measured.

Test [6] deals with T1, human DLL4 overexpressed on cells. Put plainly: competitive FMAT, hNotch1-Fc on CHO-hDLL4.
Test [7] has as its target T4, recombinant human DLL4. As to the kind of experiment: binding ELISA, coated rhDLL4. Here is the method: as §3
Test [8] has as its target T4, recombinant human DLL4. Put plainly: competition AlphaScreen, biot-hDLL4/hNotch1-Fc. Here is the method:
In brief, 1 nM biotinylated human DII4 is captured on streptavidin-coated donor beads (20 μg/mL), while 0.4 nM of the receptor human Notch1 (as a Fc fusion protein) is captured on anti-human Fc VHH-coated acceptor beads (20 μg/mL). Both loaded beads are incubated together with a dilution range of the competing VHH (FIG. 4 A-E).
(Bead proximity is the source of the signal in Alpha formats.)

For test [9], the target named is T6, human Jagged-1 (human, UniProt P78504 34-1067, limits assumed).
T6 construct: also called hJagged-1; hJAG1
As to the kind of experiment: binding ELISA on coated recombinant human Jagged-1, OD 405 nm. The procedure:
as §2

The target of test [10] is T7, cynomolgus DLL4 overexpressed on cells (cynomolgus, UniProt Q9NR61 27-685 (human entry)).
T7 construct: also called cyno DII4; cDLL4
T7 chain: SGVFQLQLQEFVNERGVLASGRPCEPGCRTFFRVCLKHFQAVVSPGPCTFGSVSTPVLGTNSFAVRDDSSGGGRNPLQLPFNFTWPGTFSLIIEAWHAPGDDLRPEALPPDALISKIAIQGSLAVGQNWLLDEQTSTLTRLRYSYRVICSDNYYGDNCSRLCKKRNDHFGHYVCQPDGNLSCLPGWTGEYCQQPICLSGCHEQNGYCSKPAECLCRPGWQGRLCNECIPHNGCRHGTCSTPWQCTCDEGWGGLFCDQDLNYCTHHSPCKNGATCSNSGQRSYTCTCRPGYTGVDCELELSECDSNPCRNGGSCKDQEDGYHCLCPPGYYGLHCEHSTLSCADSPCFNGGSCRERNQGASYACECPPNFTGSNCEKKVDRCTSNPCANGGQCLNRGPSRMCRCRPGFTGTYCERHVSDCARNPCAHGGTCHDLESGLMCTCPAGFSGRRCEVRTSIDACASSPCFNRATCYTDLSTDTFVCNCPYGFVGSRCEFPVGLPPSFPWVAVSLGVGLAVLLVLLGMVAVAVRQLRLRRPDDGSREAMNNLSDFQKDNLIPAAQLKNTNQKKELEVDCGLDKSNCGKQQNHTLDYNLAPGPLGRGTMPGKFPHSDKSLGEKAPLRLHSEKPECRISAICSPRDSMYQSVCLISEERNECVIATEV
As to the kind of experiment: FACS titration on HEK293-cDLL4 cells, MCF. Here is the method:
as §1

The target of test [11] is T4, recombinant human DLL4. As to the kind of experiment: SPR Biacore T100, hDLL4 on chip, VHH/Fab injected. Here is the method:
Kinetic analysis to determine the affinity of the DII4-VHH interaction is performed by Surface Plasmon Resonance (SPR) on a Biacore T100 instrument. […] Purified VHHs or Fab fragment are injected for 2 minutes at different concentrations (between 10 and 300 nM) and allowed to dissociate for 20 min at a flow rate of 45 μl/min. Between sample injections, the surfaces are regenerated with 10 mM glycine pH1.5 and 100 mM HCl. HBS-N (Hepes buffer pH7.4) is used as running buffer. If possible, data are evaluated by fitting a 1:1 interaction model (Langmuir binding) onto the binding curves. The affinity constant KD is calculated from resulting association and dissociation rate constants (kₐ) and […].
Background: SPR reads the build-up and loss of mass on a sensor chip optically.

The target in test [12] is T8, mouse DLL4, full length, overexpressed on CHO cells (mouse, UniProt Q9JI71 27-686).
T8 construct: whole, on cells; also called mDLL4; CHO-mDLL4
Put plainly: FMAT, hNotch1-Fc on CHO-mDLL4, -HSA.

In test [13] the target is T9, human DLL4, full length, overexpressed on cells (human, UniProt Q9NR61 27-685).
T9 construct: CHO cells in FMAT, HEK293 cells in the reporter assay; also called hDLL4; CHO-hDLL4
As to the kind of experiment: FMAT, hNotch1-Fc on CHO-hDLL4, -HSA.

Substitutions are numbered along the chain they refer to.

T2 sequence (Q9JI71 27-686): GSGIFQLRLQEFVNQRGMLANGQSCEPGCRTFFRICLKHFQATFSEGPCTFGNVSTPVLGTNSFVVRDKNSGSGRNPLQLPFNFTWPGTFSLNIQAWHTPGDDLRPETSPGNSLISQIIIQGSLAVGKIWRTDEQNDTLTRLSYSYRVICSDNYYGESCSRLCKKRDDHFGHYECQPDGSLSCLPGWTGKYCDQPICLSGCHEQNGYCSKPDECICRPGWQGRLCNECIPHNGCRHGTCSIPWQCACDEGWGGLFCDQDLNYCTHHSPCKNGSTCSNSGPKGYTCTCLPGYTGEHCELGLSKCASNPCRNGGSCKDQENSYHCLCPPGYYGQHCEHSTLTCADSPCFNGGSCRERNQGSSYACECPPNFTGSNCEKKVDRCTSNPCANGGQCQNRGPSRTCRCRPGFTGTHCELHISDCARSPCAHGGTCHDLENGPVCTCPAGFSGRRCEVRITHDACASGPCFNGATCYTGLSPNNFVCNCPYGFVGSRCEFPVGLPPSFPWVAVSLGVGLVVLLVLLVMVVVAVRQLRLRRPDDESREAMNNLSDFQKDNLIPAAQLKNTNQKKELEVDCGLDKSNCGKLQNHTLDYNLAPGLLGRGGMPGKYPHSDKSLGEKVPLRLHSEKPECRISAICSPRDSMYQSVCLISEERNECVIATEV

B1: DLLBII55D12 (VHH)
VHH: EVQLVESGGGLVQPGGSLRLSCAASGFTFDDYAIGWFRQAPGKEPEGISCISSSGGITYYADSVKGRFTISRDNAKNTVYLQMNSLKPEDTAVYYCATPGIAACRGIHYTGQGTQVTVSS
Take B1: the “EC50 (read off the curve)” value was ~7 nM in test [1] and ~6 nM in test [10]. In addition, the concentration for half-maximal inhibition (IC50) in test [2] stood at 41 nM; in [4] it was 12.3 nM; in [6], 39.1 nM; in test [8], 2.3 nM. The binding result in test [3] and in [9] was “no binding (tested: 2.5e-7 M)” each time. The results for the EC50 in test [5] and in test [7] were 30 nM and 13.1 nM, respectively.

B2: DLLBII57C11 (VHH)
VHH: B1 VHH with A23T, G56S, Y60D, T110W
B2: the half-maximal effective concentration (EC50 (read off the curve)) in [1] and in test [10] was ~10 nM each time. Also, the concentration for half-maximal inhibition (IC50) is 49.5 nM in [2], 17.3 nM in test [4], 53.9 nM in test [6] and 2.2 nM in [8]. For the same molecule, the binding result in [3] and in test [9] was “no binding (tested: 2.5e-7 M)” in each case. The results for the 50% effective concentration (EC50) in test [5] and in test [7] were 83.4 nM and 7.9 nM, respectively.

B3: DLLBII56C04 (VHH)
VHH: B1 VHH with A23T, D31V, G56S, I70T, N74S, T110W
On to B3, for which the concentration for a half-maximal effect (EC50 (read off the curve)) in test [1] and in test [10] was ~6 nM in each case. Besides, the half-inhibitory concentration (IC50) in [2] was 49.6 nM; in test [4], 33.9 nM; in [6], 28.7 nM; in [8] it was 5.4 nM. Further, the binding result in test [3] and in [9] was “no binding (tested: 2.5e-7 M)” in each case. The EC50 in test [5] worked out at 244 nM; in test [7] it was 44.3 nM. Besides, the dissociation constant Kd in test [11] came to 45 nM. For the same molecule, the off-rate (koff) in [11] was found to be 0.0049 s⁻¹. The kon in test [11] amounted to 110000 M⁻¹ s⁻¹.

B4: DLLBII56H08 (VHH)
VHH: B1 VHH with G47E
For the molecule B4, the “EC50 (read off the curve)” value in [1] was ~7 nM; in [10], ~4 nM. Moreover, the IC50 in test [2] amounted to 33.7 nM; in test [4] it was 6.9 nM; in [6], 22 nM; in test [8], 1.6 nM. Also, the EC50 was 8.7 nM in test [5] and 4.1 nM in test [7]. In [11], the dissociation constant Kd amounted to 9.4 nM. The koff in test [11] stood at 0.0011 s⁻¹. Moreover, in [11], the on-rate (kon) was 120000 M⁻¹ s⁻¹. In addition, the binding result in [9] was “no binding (tested: 2.5e-7 M)”.

B5: DLLBII039 (VHH)
VHH: EVQLVESGGGLVQPGGSLRLSCAASGFTIGSYDMSWVRRAPGKGPEWVSSISSGGGSTYYADYVKGRFTISRDNAKNTLYLQMNSLRPEDTAVYYCAADRYIWARQGEYWGAYEYDYWGQGTLVTVSS
As for B5, in test [12], the “% inh” value amounted to 100% and half-maximal inhibition (IC50) required 6.7 nM. In [13], the “% inh” value stood at 102% and half-maximal inhibition (IC50) was put at 3.6 nM.

As usually defined, the EC50 (read off the curve) is the concentration at which the effect is half-maximal. The low end stands for an effect from little substance, the high end for a need for much substance. A word on the IC50: it is the concentration at which inhibition is half-maximal. The term EC50 denotes the midpoint of the concentration-response curve. For orientation: Kd means a measure of binding affinity in units of concentration. The term koff denotes the first-order rate constant of dissociation. What is called kon is a measure of how fast the partners come together.

These data come from patent US20140120095A1 (Boehringer Ingelheim, published 2014).
